This is an account of results in the supplement of paper PMC11316812.

± gives the standard deviation of the averaged measurements.

Data set [1] deals with hTERT-HMEC. Kind of data set: percentage of EdU-negative (G0-arrested) nuclei per well, 72 h; higher = more G0 arrest. Conditions: reference: sequence is the full UniProt precursor, the tested protein was the secreted form or ectodomain.
The subject of data set [2] is MCF7. Described as above. Conditions: reference: sequence is the full UniProt precursor, the tested protein was the secreted form or ectodomain.
Setting [3] is: protein concentration 0.0225 µM.
The mark [4] stands for this setting: protein concentration 0.03125 µM.
Setting [5] is: protein concentration 0.3125 µM.
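Note: secreted proteins added to cultured cells, EdU pulse at the end, nuclei found by Hoechst imaging, EdU status from nuclear versus surrounding ring intensity ratio, PBS as neutral control.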

With “MLLWVILLVLAPVSGQFARTPRPIIFLQPPWTTVFQGERVTLTCKGFRFYSPQKTKWYHRYLGKEILRETPDNILEVQESGEYRCQAQGSPLSSPVHLDFSSASLILQAPLSVFEGDSVVLRCRAKAEVTLNNTIYKNDNVLAFLNKRTDFHIPHACLKDNGAYRCTGYKESCCPVSSNTVKIQVQEPFTRPVLRASSFQPISGNPVTLTCETQLSLERSDVPLRFRFFRDDQTLGLGWSLSPNFQITAMWSKDSGFYWCKAATMPYSVISDSPRSWIQVQIPASHPVLTLSPEKALNFEGTKVTLHCETQEDSLRTLYRFYHEGVPLRHKSVRCERGASISFSLTTENSGNYYCTADNGLGAKPSKAVSLSVTVPVSHPVLNLSSPEDLIFEGAKVTLHCEAQRGSLPILYQFHHEGAALERRSANSAGGVAISFSLTAEHSGNYYCTADNGFGPQRSKAVSLSVTVPVSHPVLTLSSAEALTFEGATVTLHCEVQRGSPQILYQFYHEDMPLWSSSTPSVGRVSFSFSLTEGHSGNYYCTADNGFGPQRSEVVSLFVTVPVSRPILTLRVPRAQAVVGDLLELHCEAPRGSPPILYWFYHEDVTLGSSSAPSGGEASFNLSLTAEHSGNYSCEANNGLVAQHSDTISLSVIVPVSRPILTFRAPRAQAVVGDLLELHCEALRGSSPILYWFYHEDVTLGKISAPSGGGASFNLSLTTEHSGIYSCEADNGLEAQRSEMVTLKVAVPVSRPVLTLRAPGTHAAVGDLLELHCEALRGSPLILYRFFHEDVTLGNRSSPSGGASLNLSLTAEHSGNYSCEADNGLGAQRSETVTLYITGLTANRSGPFATGVAGGLLSIAGLAAGALLLYCWLSRKAGRKPASDPARSPSDSDSQEPTYHNVPAWEELQPVYTNANPRGENVVYSEVRIIQEKKKHAVASDPRHLRNKGSPIIYSEVKVASTPVSGSLFLASSAPHR [Q96RD9]”, the “percentage of EdU-negative” value in data set [1] (setting [3]) turned out to be 4.23 ± 0.27%; in data set [1] (protein concentration 0.225 µM), 5.41 ± 0.94%; in data set [2] (setting [3]) it was 26 ± 0.75%; in data set [2] (protein concentration 0.225 µM), 31.1 ± 3.2%.
As for “MAFAWWPCLILALLSSLAASGFPRSPFRLLGKRSLPEGVANGIEVYSTKINSKVTSRFAHNVVTMRAVNRADTAKEVSFDVELPKTAFITNFTLTIDGVTYPGNVKEKEVAKKQYEKAVSQGKTAGLVKASGRKLEKFTVSVNVAAGSKVTFELTYEELLKRHKGKYEMYLKVQPKQLVKHFEIEVDIFEPQGISMLDAEASFITNDLLGSALTKSFSGKKGHVSFKPSLDQQRSCPTCTDSLLNGDFTITYDVNRESPGNVQIVNGYFVHFFAPQGLPVVPKNVAFVIDISGSMAGRKLEQTKEALLRILEDMQEEDYLNFILFSGDVSTWKEHLVQATPENLQEARTFVKSMEDKGMTNINDGLLRGISMLNKAREEHRIPERSTSIVIMLTDGDANVGESRPEKIQENVRNAIGGKFPLYNLGFGNNLNYNFLENMALENHGFARRIYEDSDADLQLQGFYEEVANPLLTGVEMEYPENAILDLTQNTYQHFYDGSEIVVAGRLVDEDMNSFKADVKGHGATNDLTFTEEVDMKEMEKALQERDYIFGNYIERLWAYLTIEQLLEKRKNAHGEEKENLTARALDLSLKYHFVTPLTSMVVTKPEDNEDERAIADKPGEDAEATPVSPAMSYLTSYQPPQNPYYYVDGDPHFIIQIPEKDDALCFNIDEAPGTVLRLIQDAVTGLTVNGQITGDKRGSPDSKTRKTYFGKLGIANAQMDFQVEVTTEKITLWNRAVPSTFSWLDTVTVTQDGLSMMINRKNMVVSFGDGVTFVVVLHQVWKKHPVHRDFLGFYVVDSHRMSAQTHGLLGQFFQPFDFKVSDIRPGSDPTKPDATLVVKNHQLIVTRGSQKDYRKDASIGTKVVCWFVHNNGEGLIDGVHTDYIVPNLF”, the “percentage of EdU-negative” value in data set [1] (setting [3]) was found to be 4.75 ± 1%; in data set [1] (protein concentration 0.225 µM), 6.22 ± 0.29%; in data set [2] (setting [3]), 26.1 ± 2.2%; in data set [2] (protein concentration 0.225 µM), 27.2 ± 3.3%.
On the same counts, the results for “MVMLLLLLSALAGLFGAAEGQAFHLGKCPNPPVQENFDVNKYLGRWYEIEKIPTTFENGRCIQANYSLMENGKIKVLNQELRADGTVNQIEGEATPVNLTEPAKLEVKFSWFMPSAPYWILATDYENYALVYSCTCIIQLFHVDFAWILARNPNLPPETVDSLKNILTSNNIDVKKMTVTDQVNCPKLS” are 4.945 ± 0.022%, 4.745 ± 0.02%, 24.66 ± 0.099% and 25.9 ± 3%.
For “MGTKAQVERKLLCLFILAILLCSLALGSVTVHSSEPEVRIPENNPVKLSCAYSGFSSPRVEWKFDQGDTTRLVCYNNKITASYEDRVTFLPTGITFKSVTREDTGTYTCMVSEEGGNSYGEVKVKLIVLVPPSKPTVNIPSSATIGNRAVLTCSEQDGSPPSEYTWFKDGIVMPTNPKSTRAFSNSSYVLNPTTGELVFDPLSASDTGEYSCEARNGYGTPMTSNAVRMEAVERNVGVIVAAVLVTLILLGILVFGIWFAYSRGHFDRTKKGTSSKKVIYSQPSARSEGEFKQTSSFLV [Q9Y624]” the same measures were 4.79 ± 0.22%, 5.1 ± 1.2%, 24.4 ± 0.49% and 25.6 ± 5.5%.
Take “MGLLLPLALCILVLCCGAMSPPQLALNPSALLSRGCNDSDVLAVAGFALRDINKDRKDGYVLRLNRVNDAQEYRRGGLGSLFYLTLDVLETDCHVLRKKAWQDCGMRIFFESVYGQCKAIFYMNNPSRVLYLAAYNCTLRPVSKKKIYMTCPDCPSSIPTDSSNHQVLEAATESLAKYNNENTSKQYSLFKVTRASSQWVVGPSYFVEYLIKESPCTKSQASSCSLQSSDSVPVGLCKGSLTRTHWEKFVSVTCDFFESQAPATGSENSAVNQKPTNLPKVEESQQKNTPPTDSPSKAGPRGSVQYLPDLDDKNSQEKGPQEAFPVHLDLTTNPQGETLDISFLFLEPMEEKLVVLPFPKEKARTAECPGPAQNASPLVLPP [Q9UGM5]”: the “percentage of EdU-negative” value in data set [1] (setting [4]) amounted to 5.24 ± 0.29%; in data set [1] (setting [5]), 7.43 ± 0.49%; in data set [2] (setting [4]) it was 26.5 ± 2.8%; in data set [2] (setting [5]), 27.9 ± 0.97%.
On to “MARGSAVAWAALGPLLWGCALGLQGGMLYPQESPSRECKELDGLWSFRADFSDNRRRGFEEQWYRRPLWESGPTVDMPVPSSFNDISQDWRLRHFVGWVWYEREVILPERWTQDLRTRVVLRIGSAHSYAIVWVNGVDTLEHEGGYLPFEADISNLVQVGPLPSRLRITIAINNTLTPTTLPPGTIQYLTDTSKYPKGYFVQNTYFDFFNYAGLQRSVLLYTTPTTYIDDITVTTSVEQDSGLVNYQISVKGSNLFKLEVRLLDAENKVVANGTGTQGQLKVPGVSLWWPYLMHERPAYLYSLEVQLTAQTSLGPVSDFYTLPVGIRTVAVTKSQFLINGKPFYFHGVNKHEDADIRGKGFDWPLLVKDFNLLRWLGANAFRTSHYPYAEEVMQMCDRYGIVVIDECPGVGLALPQFFNNVSLHHHMQVMEEVVRRDKNHPAVVMWSVANEPASHLESAGYYLKMVIAHTKSLDPSRPVTFVSNSNYAADKGAPYVDVICLNSYYSWYHDYGHLELIQLQLATQFENWYKKYQKPIIQSEYGAETIAGFHQDPPLMFTEEYQKSLLEQYHLGLDQKRRKYVVGELIWNFADFMTEQSPTRVLGNKKGIFTRQRQPKSAAFLLRERYWKIANETRYPHSVAKSQCLENSLFT”, for which the “percentage of EdU-negative” value in data set [1] (setting [3]) is 5.26 ± 0.26%; in data set [1] (protein concentration 0.225 µM), 5.74 ± 0.95%; in data set [2] (setting [3]), 24.2 ± 0.95%; in data set [2] (protein concentration 0.225 µM) it was 23.4 ± 1.8%.
